B1: EHEE_rd4_0726 (parent)
chain: DIEITTNGEEDAKRVIKELQKRNLEYHIEVHGNQWVIKVR

Variants of: B1
Assay: folding stability dG (cDNA display proteolysis); higher = more stable
Conditions: PBS, room temperature

Folding stability dG [kcal/mol]: each site, then its substitutions
R40: Y 2.57, C 2.97, E 1.73, Q 2.11, W 2.3, N 1.97, S 2.18, I 2.84, V 2.65, F 2.73, A 2.12, H 2.74, M 2.58, P 1.89, G 1.81, D 1.59, L 2.7, K 2.63, T 2.48
K38: G 0.141, V 2.7, Y 2.68, H 2.39, C 2.33, S 1.94, M 2.16, I 3.04, Q 1.62, T 2.77, R 2.58, F 2.63, D -0.365, W 2.19, E 0.557, N 1.29, A 1.32, L 2.34
V36: Y 1.7, W 1.16, T 1.77
V39: A 1.06, G 0.015, Y 2.08, K -0.993, H 0.549, P -0.609, R -0.082, S 0.617, F 2.15, M 1.44, I 2.58, W 1.83, T 1.12, Q -0.263, L 1.98
I37: V 1.5, M 0.481, F 1.95, L 1.21, C 1.49

Reference: the MegaScale stability set (Tsuboyama et al. 2023)
